Experimental data published in the nanobody polyreactivity screen of Harvey et al. (2022).

Test: yeast display, Sf9 membrane polyspecificity reagent, FACS + sequencing; frameworks hold sequencing errors
In short: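 Synthetic nanobody libraries on Saccharomyces cerevisiae BJ5465 were galactose-induced for 36–48 hours, stained 1 hour at 4 °C with 10% biotinylated, detergent-solubilized Sf9 membrane reagent and enriched on streptavidin microbeads. FACS then separated cells into low and high (top ~1%) gates by anti-HA (expression) and streptavidin (reagent binding) fluorescence. Genes were colony-PCR amplified, MiSeq 2 × 250 sequenced and CDR-length filtered. A clone's polyreactivity label is that of its gate of origin.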

| Sequence | polyreactivity (PSR sort gate) |
| --- | --- |
| QVQLVESGGGLVQAGGSLRLSCAASGLTFYYYVMGWYRQAPGKEREFVAAISRSGGSTYYADSVKGRFTISRDNAKNTVYLQMNSLKPEDTAVYYCASYTHDFGYKYWGQGTQVTVSS | high polyreactivity |
| QVQLVESGGGLVQAGGSLRLSCAASGLTFYYYVMGWYRQAPGKERELVAAISSSGGNTYYADSVKGRFTISRDNAKNTVYLQMNSLKPEDTAVYYCAAGQKRTLDNYWGQGTQVTVSS | high polyreactivity |
| QVQLVESGGGLVQAGGSLRLSCAASGLTINPNAMGWYRPAPGKERELVAAIDWSGGSTYCADSVKGRFTISRDNAKNTVYLQMNSLKPEDTAVYYSAADPPDRLFLYDYWGQGTQVTVSS | low polyreactivity |
| QVQLVESGGGLVQAGGSLRLSCAASGLTIQNNAMGWYRQAPGKERDLVAVITRIGGSTYYADSVKGRFTISRDYEKNTVYLQMNSLKPEDTAVYYCAAGYRTRRRLHVYWGQGTQVTVSS | high polyreactivity |
| QVQLVESGGGLVQAGGSLRLSCAASGLTITKNVMGWYRQAPGKERELVAVISRSGGSTYYADSVKGRFTISRDNAKNTVYLQMNSLKPEDTAVYYCNVKGPGPSRGNYWGQGTQVTVSS | low polyreactivity |
| QVQLVESGGGLVQAGGSLRLSCAASGLTITQYVMGWYRQAPGKERDLDAAISWGGTSTYYADSVKGRFTISRDHAKNTVYLQMNSLKPEDTAVYYCNARSVYLSFWGFDYWGQGTQVTVSS | low polyreactivity |
| QVQLVESGGGLVQAGGSLRLSCAASGLTIWRYAMGWYRQAPGKEREFVATISQNGGRTYYADSVKGRFTISRDNAKNTVYLQMNSLKPEDTAVYYCAADDWRWGYDYWGQGTQVTVSS | high polyreactivity |
| QVQLVESGGGLVQAGGSLRLSCAASGLTIWYYAMGWSRQAPGKEREFVAAITSRGGDTYYADSVKGRFTISRDNAKNTVYLQMNSLKPEDTAVYYCAVRPRYYGTYRYYYWGQGTQVTVSS | high polyreactivity |
| QVQLVESGGGLVQAGGSLRLSCAASGLTIYYYAMGWYRQAPGKERELVAAITWRGGSTYYADSVKGRFTISRDNAKNTVYLQMNSLKPEDTAVYYCAADPGPYGYYYWGQGTQVTVSS | low polyreactivity |
| QVQLVESGGGLVQAGGSLRLSCAASGLTLAPNAMGWYRQAPGKERELVAAITRSGGDTYYADSVKGRFTISRDNAKNTVYLQMNSLKPEDTAVYYCAADYWFRYGTYEYWGQGTQVTVSS | high polyreactivity |
| QVQLVESGGGLVQAGGSLRLSCAASGLTLDKYAMGWYRQAPGKERELVAGINSRGGSTYADSVKGRFTISRDNAKNTVYLQMNSMKPEDTAVYYCAADGKVQGGYYWGQGTQVTVSS | high polyreactivity |
| QVQLVESGGGLVQAGGSLRLSCAASGLTLETIAMGGYRQAPGKERELVAGITYSGGTTYYADSVKGRFTISRDNAKNTVYLQMNSLKPEDTAVFYCAAHTRTSGHIYWGQGTQVTVSS | low polyreactivity |
| QVQLVESGGGLVQAGGSLRLSCAASGLTLGDNPMGWYRQAPGKERELVAAITSGGVNTYYADSVKGRFTISRDNAKNTVYLQMNSLKPEDTAVYYCAVPNRVYSQQYKFSVRYYYWGQGTQVTVSS | low polyreactivity |
| QVQLVESGGGLVQAGGSLRLSCAASGLTLYRYAMGWYRQAPGKERELVAGISWGGGSTYYADSVKGRFTISRDNAKNTVYLQMNSLKPEDTAVYYCAAGRLLYIPRYYYWGQGTQVTVSS | high polyreactivity |
| QVQLVESGGGLVQAGGSLRLSCAASGLTLYRYTMGWYRQAPGKERELVAGISRGGSTYYADSVKGRFTISRDNAKNTVYLQMNSLKPEDTAVYYCAAYYGGHYYAYSYDYWGQGTQVTVSS | high polyreactivity |
| QVQLVESGGGLVQAGGSLRLSCAASGLTLYYNAMGWYRQAPGKERELVAAISGSGGNTYYADSVKGRFTISRDNAKNTVYLQMNSLKPEDTAVYYCAKVVRVSHRYYYWGQGTQVTVSS | high polyreactivity |

| Sequence | polyreactivity (PSR sort gate) |
| --- | --- |
| QVQLVESGGGLVQAGGSLRLSCAASGLTSGYYAMGWYRQAPGKEREFVAAITWRSGSTYYADSVKGRFTISRDNAKNTVYLQMNSLKPEDTAVYYCAAVSVIYHGHNRSTYEYWGQGTQVTVSS | high polyreactivity |
| QVQLVESGGGLVQAGGSLRLSCAASGLTSNGYTMGWYRQAPGKERELVAAITGRDGSTYADSVKGRFTISRDNAKNTVYLQMNSLKPEHTAVYYCAARLWRYRRYDYWGQGTQVTVSS | high polyreactivity |
| QVQLVESGGGLVQAGGSLRLSCAASGNAMGWYRQAPGKERELVAAITRRVGSTYYADSVKGRFTISRDNAKNTVYLQMNSLKPEDTAVYYCAADNPSYNLWYGYWGQGTQVTVSS | low polyreactivity |
| QVQLVESGGGLVQAGGSLRLSCAASGNIFAWYAMGGYRQAPGKERELVADISSRGGSTYYADSVKGRFTISRDNAKNTVYLQMNSLKPEDTAVYYCAAVWYWTQDYDYWGQGTQVTVSS | low polyreactivity |
| QVQLVESGGGLVQAGGSLRLSCAASGNIFAYYAMGWYRQAPGKEREFVAAIRSSGVSTYYADSVKGRFTISRDNAKNTVYLQMNSLKPEDTAVYYCAADSITGGWLIVSPPFNYTYDYWGQGTQVTVSS | low polyreactivity |
| QVQLVESGGGLVQAGGSLRLSCAASGNIFAYYAMGWYRQAPGKEREFVAAIRSSGVSTYYADSVKGRFTISRDNAKNTVYLQMNSLKPEDTAVYYCAADSITGGWLIVSPPYNYTYDYWGQGTQVTVSS | low polyreactivity |
| QVQLVESGGGLVQAGGSLRLSCAASGNIFDLYAMGWYRQAPGKERELVAAITRSSSRTYYADSVKGRFTISRDNAKNTVYLQMNSLKPEDTAVYYCRAKQVNRFDYWGQGTKVTVSS | high polyreactivity |
| QVQLVESGGGLVQAGGSLRLSCAASGNIFDTYVMGWYRQAPGKERELVAAITSDGGTYYADSVKGRFTSSRDNATNPVYLQMNSRQPEDTAVYYCAADTYYYPIHDYWGQGTQVTVSS | low polyreactivity |
| QVQLVESGGGLVQAGGSLRLSCAASGNIFDVYAMGWYRQAPGKERELVADIDRGGTTYADSVKGRFTISRDNAKNTVYLQMNSLKPVDTAVYYCAADYVQGFGFYYQWLYDYWGQGTQVTVSS | low polyreactivity |
| QVQLVESGGGLVQAGGSLRLSCAASGNIFGGNAMGWYRQAPGKERELVAAMTRGGSTYYADSVKGRFTISRDNAKNTVYLQMNSLKPEATAVYYCAKSYRLRSDYDYWGQGTQVTVSS | low polyreactivity |
| QVQLVESGGGLVQAGGSLRLSCAASGNIFGVYAMGWYRQAPGKERELVAAIRYSTVSTYYADSVKGRFTISRDNAKNTVYLQMNSLKPEDTAVYYCAAQRRRYLPGHYYYWGQGTQVTVSS | high polyreactivity |
| QVQLVESGGGLVQAGGSLRLSCAASGNIFGWNDMGWCRQAPGKEWEVVAAISWTGDSTYDADSVKGRFTISRDNAKNTVYLQMNSLKPEDTAVYYGAADTPTLQYLTPRSEFDAWGQGTQVTVSS | low polyreactivity |
| QVQLVESGGGLVQAGGSLRLSCAASGNIFGWYAMGWYRQAPGKERELVAAISSGGRTNYADSVKGRFTISRDNAKNTVYLQMNSLKPEDTAVYYCAAERKLYGLYDYWGQGTQVTVSS | low polyreactivity |
| QVQLVESGGGLVQAGGSLRLSCAASGNIFGYYAMGWYRQAPGKERELVAAIRTRGGRTYYADSVKGRFTISRDNAKTTVYLQMNSLKPEDTAVYYGAARSIAGFWRYDYWGQGTQVTVSS | high polyreactivity |
| QVQLVESGGGLVQAGGSLRLSCAASGNIFILNAMGWYRQAPGKERELVAAISTTGGSTYYADSVKGRFTISRDNAKNTVYLQMNSLKPEDTAVYYCAAYTYRYSTFYYWGQGTQVTVSS | high polyreactivity |
| QVQLVESGGGLVQAGGSLRLSCAASGNIFIRYAMGWYRQAPGKERDLVAAISQSGGGTSYADSVKGRFTISRDNAKNTVYLQMNSLKPEDTAVYYCNARYWRYPWRFGAWVGHDYWGQGTQVTVSS | low polyreactivity |
